# Target: GFRAL/RET overexpressed on HEK293 cells (GFRAL/RET/SRE-luc-overexpressing HEK293 cell line) (UniProt Q6UXV0 19-394; P07949 29-1114, limits assumed)
# Assay: cell-based or functional assay
# Chain of GFRAL/RET overexpressed on HEK293 cells (GFRAL/RET/SRE-luc-overexpressing HEK293 cell line) (Q6UXV0 19-394 limits assumed, chain 1 of 2): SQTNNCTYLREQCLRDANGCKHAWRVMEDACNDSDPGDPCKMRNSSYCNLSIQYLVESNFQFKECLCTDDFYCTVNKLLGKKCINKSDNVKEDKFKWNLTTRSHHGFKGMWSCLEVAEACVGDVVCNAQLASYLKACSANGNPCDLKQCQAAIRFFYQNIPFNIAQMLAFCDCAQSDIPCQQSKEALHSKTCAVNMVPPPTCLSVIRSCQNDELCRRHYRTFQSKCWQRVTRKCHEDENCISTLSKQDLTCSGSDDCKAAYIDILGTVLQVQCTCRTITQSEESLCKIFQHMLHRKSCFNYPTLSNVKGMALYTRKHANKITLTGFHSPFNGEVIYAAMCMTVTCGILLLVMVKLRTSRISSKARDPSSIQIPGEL
# Chain of GFRAL/RET overexpressed on HEK293 cells (GFRAL/RET/SRE-luc-overexpressing HEK293 cell line) (P07949 29-1114 limits assumed, chain 2 of 2): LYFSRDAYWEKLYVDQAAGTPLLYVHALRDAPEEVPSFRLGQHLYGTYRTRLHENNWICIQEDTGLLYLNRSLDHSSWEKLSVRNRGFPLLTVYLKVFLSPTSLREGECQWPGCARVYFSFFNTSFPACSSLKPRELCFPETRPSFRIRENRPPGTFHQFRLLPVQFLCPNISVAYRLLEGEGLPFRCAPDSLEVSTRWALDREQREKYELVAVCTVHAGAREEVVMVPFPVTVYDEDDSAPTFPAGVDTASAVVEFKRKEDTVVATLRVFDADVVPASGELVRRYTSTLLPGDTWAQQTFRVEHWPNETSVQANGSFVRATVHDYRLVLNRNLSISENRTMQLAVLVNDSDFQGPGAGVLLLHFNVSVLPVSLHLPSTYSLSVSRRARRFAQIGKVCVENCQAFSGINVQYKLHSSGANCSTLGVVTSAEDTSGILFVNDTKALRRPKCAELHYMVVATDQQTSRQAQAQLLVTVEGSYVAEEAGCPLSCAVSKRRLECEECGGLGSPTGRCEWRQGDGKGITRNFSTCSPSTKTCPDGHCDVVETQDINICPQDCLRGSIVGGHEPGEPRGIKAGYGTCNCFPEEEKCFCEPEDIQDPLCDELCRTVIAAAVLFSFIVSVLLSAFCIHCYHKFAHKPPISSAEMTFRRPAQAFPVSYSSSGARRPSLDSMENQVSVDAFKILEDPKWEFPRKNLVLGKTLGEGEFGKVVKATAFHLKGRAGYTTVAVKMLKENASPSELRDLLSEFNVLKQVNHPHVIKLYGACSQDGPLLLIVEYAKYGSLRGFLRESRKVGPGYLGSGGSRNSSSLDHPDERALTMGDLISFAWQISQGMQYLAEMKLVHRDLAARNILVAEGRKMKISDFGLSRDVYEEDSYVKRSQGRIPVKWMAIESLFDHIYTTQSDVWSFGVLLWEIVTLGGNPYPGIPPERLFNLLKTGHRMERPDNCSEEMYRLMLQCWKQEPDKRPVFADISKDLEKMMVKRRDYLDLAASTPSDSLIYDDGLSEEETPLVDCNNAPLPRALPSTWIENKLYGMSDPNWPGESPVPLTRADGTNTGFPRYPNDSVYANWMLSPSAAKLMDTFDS
Binder,"EC50 (nM), SRE-luciferase reporter (RLU)","Emax (%), SRE-luciferase reporter (RLU), relative to FM9-6+Fc_hole"
FM9-1 + Fc_hole long-acting GDF15 fusion protein (dimer) (Fc fusion) chain 1: APEAAGGPSVFLFPPKPKDTLMISRTPEVTCVVVDVSHEDPEVKFNWYVDGVEVHNAKTKPREEQYASTYRVVSVLTVLHQDWLNGKEYKCKVSNKALPAPIEKTISKAKGQPREPQVYTLPPSREEMTKNQVSLWCLVKGFYPSDIAVEWESNGQPENNYKTTPPVLDSDGSFFLYSKLTVDKSRWQQGNVFSCSVMHEALHNHYTQKSLSLSPGKGSGGGGSGGGGSGGGGSNGDHCPLGPGRCCRLHTVRASLEDLGWADWVLSPREVQVTMCIGACPSQFRAANMHAQIKTRLHRLKPDTVPAPCCVPASYNPMVLIQKTDTGVSLQTYDDLLAKDCHCI chain 2: APEAAGGPSVFLFPPKPKDTLMISRTPEVTCVVVDVSHEDPEVKFNWYVDGVEVHNAKTKPREEQYASTYRVVSVLTVLHQDWLNGKEYKCKVSNKALPAPIEKTISKAKGQPREPQVYTLPPSREEMTKNQVSLSCAVKGFYPSDIAVEWESNGQPENNYKTTPPVLDSDGSFFLVSKLTVDKSRWQQGNVFSCSVMHEALHNHYTQKSLSLSPGK,9 nM,97.6%
FM9-5 + Fc_hole long-acting GDF15 fusion protein (dimer) (Fc fusion) chain 1: APEAAGGPSVFLFPPKPKDTLMISRTPEVTCVVVDVSHEDPEVKFNWYVDGVEVHNAKTKPREEQYASTYRVVSVLTVLHQDWLNGKEYKCKVSNKALPAPIEKTISKAKGQPREPQVYTLPPSREEMTKNQVSLWCLVKGFYPSDIAVEWESNGQPENNYKTTPPVLDSDGSFFLYSKLTVDKSRWQQGNVFSCSVMHEALHNHYTQKSLSLSPGKGSGGSSPTPTPTPTPTPTPTPTPTPTNGDHCPLGPGRCCRLHTVRASLEDLGWADWVLSPREVQVTMCIGACPSQFRAANMHAQIKTRLHRLKPDTVPAPCCVPASYNPMVLIQKTDTGVSLQTYDDLLAKDCHCI chain 2: APEAAGGPSVFLFPPKPKDTLMISRTPEVTCVVVDVSHEDPEVKFNWYVDGVEVHNAKTKPREEQYASTYRVVSVLTVLHQDWLNGKEYKCKVSNKALPAPIEKTISKAKGQPREPQVYTLPPSREEMTKNQVSLSCAVKGFYPSDIAVEWESNGQPENNYKTTPPVLDSDGSFFLVSKLTVDKSRWQQGNVFSCSVMHEALHNHYTQKSLSLSPGK,5.3 nM,100%
FM9-6 + Fc_hole long-acting GDF15 fusion protein (dimer) (Fc fusion) chain 1: APEAAGGPSVFLFPPKPKDTLMISRTPEVTCVVVDVSHEDPEVKFNWYVDGVEVHNAKTKPREEQYASTYRVVSVLTVLHQDWLNGKEYKCKVSNKALPAPIEKTISKAKGQPREPQVYTLPPSREEMTKNQVSLWCLVKGFYPSDIAVEWESNGQPENNYKTTPPVLDSDGSFFLYSKLTVDKSRWQQGNVFSCSVMHEALHNHYTQKSLSLSPGKGSEAAAKEAAAKEAAAKEAAAKEAAAKNGDHCPLGPGRCCRLHTVRASLEDLGWADWVLSPREVQVTMCIGACPSQFRAANMHAQIKTRLHRLKPDTVPAPCCVPASYNPMVLIQKTDTGVSLQTYDDLLAKDCHCI chain 2: APEAAGGPSVFLFPPKPKDTLMISRTPEVTCVVVDVSHEDPEVKFNWYVDGVEVHNAKTKPREEQYASTYRVVSVLTVLHQDWLNGKEYKCKVSNKALPAPIEKTISKAKGQPREPQVYTLPPSREEMTKNQVSLSCAVKGFYPSDIAVEWESNGQPENNYKTTPPVLDSDGSFFLVSKLTVDKSRWQQGNVFSCSVMHEALHNHYTQKSLSLSPGK,6.3 nM,–
FM11-1 + Fc_hole long-acting GDF15 fusion protein (dimer) (Fc fusion) chain 1: APEAAGGPSVFLFPPKPKDTLMISRTPEVTCVVVDVSHEDPEVKFNWYVDGVEVHNAKTKPREEQYASTYRVVSVLTVLHQDWLNGKEYKCKVSNKALPAPIEKTISKAKGQPREPQVYTLPPSREEMTKNQVSLWCLVKGFYPSDIAVEWESNGQPENNYKTTPPVLDSDGSFFLYSKLTVDKSRWQQGNVFSCSVMHEALHNHYTQKSLSLSPGKGSGGGGSGGGGSGGGGSNSTCPLGPGRCCRLHTVRASLEDLGWADWVLSPREVQVTMCIGACPSQFRAANMHAQIKTRLHRLKPDTVPAPCCVPASYNPMVLIQKTDTGVSLQTYDDLLAKDCHCI chain 2: APEAAGGPSVFLFPPKPKDTLMISRTPEVTCVVVDVSHEDPEVKFNWYVDGVEVHNAKTKPREEQYASTYRVVSVLTVLHQDWLNGKEYKCKVSNKALPAPIEKTISKAKGQPREPQVYTLPPSREEMTKNQVSLSCAVKGFYPSDIAVEWESNGQPENNYKTTPPVLDSDGSFFLVSKLTVDKSRWQQGNVFSCSVMHEALHNHYTQKSLSLSPGK,9.7 nM,65.6%
FM11-2 + Fc_hole long-acting GDF15 fusion protein (dimer) (Fc fusion) chain 1: APEAAGGPSVFLFPPKPKDTLMISRTPEVTCVVVDVSHEDPEVKFNWYVDGVEVHNAKTKPREEQYASTYRVVSVLTVLHQDWLNGKEYKCKVSNKALPAPIEKTISKAKGQPREPQVYTLPPSREEMTKNQVSLWCLVKGFYPSDIAVEWESNGQPENNYKTTPPVLDSDGSFFLYSKLTVDKSRWQQGNVFSCSVMHEALHNHYTQKSLSLSPGKGSGGGGSGGGGSGGGGSGGGGSGGGGSNSTCPLGPGRCCRLHTVRASLEDLGWADWVLSPREVQVTMCIGACPSQFRAANMHAQIKTRLHRLKPDTVPAPCCVPASYNPMVLIQKTDTGVSLQTYDDLLAKDCHCI chain 2: APEAAGGPSVFLFPPKPKDTLMISRTPEVTCVVVDVSHEDPEVKFNWYVDGVEVHNAKTKPREEQYASTYRVVSVLTVLHQDWLNGKEYKCKVSNKALPAPIEKTISKAKGQPREPQVYTLPPSREEMTKNQVSLSCAVKGFYPSDIAVEWESNGQPENNYKTTPPVLDSDGSFFLVSKLTVDKSRWQQGNVFSCSVMHEALHNHYTQKSLSLSPGK,7.7 nM,79.4%
FM11-3 + Fc_hole long-acting GDF15 fusion protein (dimer) (Fc fusion) chain 1: APEAAGGPSVFLFPPKPKDTLMISRTPEVTCVVVDVSHEDPEVKFNWYVDGVEVHNAKTKPREEQYASTYRVVSVLTVLHQDWLNGKEYKCKVSNKALPAPIEKTISKAKGQPREPQVYTLPPSREEMTKNQVSLWCLVKGFYPSDIAVEWESNGQPENNYKTTPPVLDSDGSFFLYSKLTVDKSRWQQGNVFSCSVMHEALHNHYTQKSLSLSPGKGSGGGGSGGGGSGGGGSGGGGSGGGGSGGGGSGGGGSNSTCPLGPGRCCRLHTVRASLEDLGWADWVLSPREVQVTMCIGACPSQFRAANMHAQIKTRLHRLKPDTVPAPCCVPASYNPMVLIQKTDTGVSLQTYDDLLAKDCHCI chain 2: APEAAGGPSVFLFPPKPKDTLMISRTPEVTCVVVDVSHEDPEVKFNWYVDGVEVHNAKTKPREEQYASTYRVVSVLTVLHQDWLNGKEYKCKVSNKALPAPIEKTISKAKGQPREPQVYTLPPSREEMTKNQVSLSCAVKGFYPSDIAVEWESNGQPENNYKTTPPVLDSDGSFFLVSKLTVDKSRWQQGNVFSCSVMHEALHNHYTQKSLSLSPGK,7.8 nM,81%
FM11-4 + Fc_hole long-acting GDF15 fusion protein (dimer) (Fc fusion) chain 1: APEAAGGPSVFLFPPKPKDTLMISRTPEVTCVVVDVSHEDPEVKFNWYVDGVEVHNAKTKPREEQYASTYRVVSVLTVLHQDWLNGKEYKCKVSNKALPAPIEKTISKAKGQPREPQVYTLPPSREEMTKNQVSLWCLVKGFYPSDIAVEWESNGQPENNYKTTPPVLDSDGSFFLYSKLTVDKSRWQQGNVFSCSVMHEALHNHYTQKSLSLSPGKGSEEEAEEEAEEEAEEEAEEEAEEEANSTCPLGPGRCCRLHTVRASLEDLGWADWVLSPREVQVTMCIGACPSQFRAANMHAQIKTRLHRLKPDTVPAPCCVPASYNPMVLIQKTDTGVSLQTYDDLLAKDCHCI chain 2: APEAAGGPSVFLFPPKPKDTLMISRTPEVTCVVVDVSHEDPEVKFNWYVDGVEVHNAKTKPREEQYASTYRVVSVLTVLHQDWLNGKEYKCKVSNKALPAPIEKTISKAKGQPREPQVYTLPPSREEMTKNQVSLSCAVKGFYPSDIAVEWESNGQPENNYKTTPPVLDSDGSFFLVSKLTVDKSRWQQGNVFSCSVMHEALHNHYTQKSLSLSPGK,45.4 nM,105%
FM11-5 + Fc_hole long-acting GDF15 fusion protein (dimer) (Fc fusion) chain 1: APEAAGGPSVFLFPPKPKDTLMISRTPEVTCVVVDVSHEDPEVKFNWYVDGVEVHNAKTKPREEQYASTYRVVSVLTVLHQDWLNGKEYKCKVSNKALPAPIEKTISKAKGQPREPQVYTLPPSREEMTKNQVSLWCLVKGFYPSDIAVEWESNGQPENNYKTTPPVLDSDGSFFLYSKLTVDKSRWQQGNVFSCSVMHEALHNHYTQKSLSLSPGKGSGGSSPTPTPTPTPTPTPTPTPTPTNSTCPLGPGRCCRLHTVRASLEDLGWADWVLSPREVQVTMCIGACPSQFRAANMHAQIKTRLHRLKPDTVPAPCCVPASYNPMVLIQKTDTGVSLQTYDDLLAKDCHCI chain 2: APEAAGGPSVFLFPPKPKDTLMISRTPEVTCVVVDVSHEDPEVKFNWYVDGVEVHNAKTKPREEQYASTYRVVSVLTVLHQDWLNGKEYKCKVSNKALPAPIEKTISKAKGQPREPQVYTLPPSREEMTKNQVSLSCAVKGFYPSDIAVEWESNGQPENNYKTTPPVLDSDGSFFLVSKLTVDKSRWQQGNVFSCSVMHEALHNHYTQKSLSLSPGK,5.1 nM,68.2%
FM11-6 + Fc_hole long-acting GDF15 fusion protein (dimer) (Fc fusion) chain 1: APEAAGGPSVFLFPPKPKDTLMISRTPEVTCVVVDVSHEDPEVKFNWYVDGVEVHNAKTKPREEQYASTYRVVSVLTVLHQDWLNGKEYKCKVSNKALPAPIEKTISKAKGQPREPQVYTLPPSREEMTKNQVSLWCLVKGFYPSDIAVEWESNGQPENNYKTTPPVLDSDGSFFLYSKLTVDKSRWQQGNVFSCSVMHEALHNHYTQKSLSLSPGKGSEAAAKEAAAKEAAAKEAAAKEAAAKNSTCPLGPGRCCRLHTVRASLEDLGWADWVLSPREVQVTMCIGACPSQFRAANMHAQIKTRLHRLKPDTVPAPCCVPASYNPMVLIQKTDTGVSLQTYDDLLAKDCHCI chain 2: APEAAGGPSVFLFPPKPKDTLMISRTPEVTCVVVDVSHEDPEVKFNWYVDGVEVHNAKTKPREEQYASTYRVVSVLTVLHQDWLNGKEYKCKVSNKALPAPIEKTISKAKGQPREPQVYTLPPSREEMTKNQVSLSCAVKGFYPSDIAVEWESNGQPENNYKTTPPVLDSDGSFFLVSKLTVDKSRWQQGNVFSCSVMHEALHNHYTQKSLSLSPGK,6.8 nM,80.3%

# — patent US20240238380A1 (YUHAN, published 2024)
